Patent US4829052A, “Serine protease inhibitors” (Monsanto Company, priority 1987, dated 1989)

What was measured:
bovine trypsin = molecular target: T1, bovine trypsin (Bos taurus, UniProt P00760); test: Trypsin assay (spectrophotometric, N-Benzoyl-L-arginine p-nitroanilide substrate); type: biochemical; settings: inhibitor/protease ratio between about 10/1 and 50/1
T1 sequence (P00760 24-246): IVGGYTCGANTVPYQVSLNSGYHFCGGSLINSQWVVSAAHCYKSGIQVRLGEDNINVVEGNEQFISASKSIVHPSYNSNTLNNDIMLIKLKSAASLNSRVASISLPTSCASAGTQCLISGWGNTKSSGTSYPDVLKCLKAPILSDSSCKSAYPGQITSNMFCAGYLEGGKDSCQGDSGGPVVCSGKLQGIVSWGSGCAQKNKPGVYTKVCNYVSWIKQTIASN
Description: (§1) The inhibitory activity of the polypeptides of the present invention can be easily assayed using in vitro assays. In these types of spectrophotometric assays the activity of the serine protease is measured toward an appropriate p-nitroanilide substrate in the presence and absence of the peptide inhibitor. The enzyme catalyzed hydrolysis of the peptide p-nitroanilide substrate produces p-nitroanaline which results in an increase in absorbance which is monitored in the range of 405 to 410 nm. The rate of increase in absorbance is a measure of the enzymatic activity and the decrease in this rate relative to a suitable control is used to ascertain inhibition. The general assay procedure and details of the particular assays employed in the examples are provided in the Appendix following the examples. It is also possible to test the polypeptides in a functionally oriented assay that emulates in vivo conditions. Such an inhibition assay for elastase is also described in the Appendix.
(§2) Generalized Protocol Spectrophotometric Assays:
(§3) (1) Pipette 100 μl of enzyme solution into a disposable polystyrene cuvette (1 cm optical path length).
(§4) (2) Add (1900-X) μl of bufferto the cuvette, where X is the volume of test solution in microliters that is added in the next step.
(§5) Add X μl of test solution to the cuvette, where X ranges from 0 μl for the control to a maximum of about 500 μl. Incubate the solution for a period of 1 to 5 minutes at ambient temperature.
(§6) (4) Add 100 μl of substrate solution to the cuvette. Mix the contents by covering the cuvette with a piece of paraffin film and repeatedly inverting for a period of 5 to 15 seconds.
(§7) (5) Record the change in absorbance for about 5 minutes at either 405 or 410 nm, depending on the assay, with a spectrophotometer equipped with a suitable recording device.
(§8) The percent inhibition is calculated from the formula [formula] where (ΔA/min) is the initial rate of absorbance change.
(§9) (7) For more accurate quantitative determinations temperature control of the cuvette holders and the reagent solutions can be instituted.
(§10) (8) The test solution can be crude oxidized peptide prepared as described above, fractions from a chromatographic separation or purified polypeptides.
(A) Buffer Solution - Triethanolamine buffer consisting of 200 mM triethanolamine, 20 mM CaCl2, pH 7.8
(B) Substrate solution - Dissolve 50 mg of N-Benzoyl-L-arginine p-nitroanilide in 50 ml of water. Sonicate for 5 to 10 minutes to completely dissolve the solid material.
(C) Enzyme solution - Dissolve 1 mg of bovine trypsin in 10 ml of 0.001N HCl stored on ice during the assay.
(D) Test Solution - See general protocol, number 8.
Procedure: Use the above solutions in the general protocol described above.

purified HE = molecular target: T2, purified HE (Homo sapiens, UniProt P08246); test: 3H-Elastin assay with purified HE; type: biochemical; settings: FIG. 4
T2 sequence (P08246 30-267): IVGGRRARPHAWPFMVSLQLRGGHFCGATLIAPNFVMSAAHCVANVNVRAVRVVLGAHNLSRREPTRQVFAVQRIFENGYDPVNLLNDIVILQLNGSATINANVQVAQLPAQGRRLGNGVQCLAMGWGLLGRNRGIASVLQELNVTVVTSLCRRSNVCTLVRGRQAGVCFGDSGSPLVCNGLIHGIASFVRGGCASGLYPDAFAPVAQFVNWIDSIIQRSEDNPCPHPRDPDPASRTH
Description: The inhibition of elastolysis by peptide 8 was investigated using the ^3 H-elastin assay and purified HE.
Another, yet less sensitive, assay employs radiolabelled elastin as the solid substrate in order to imitate degradation of connective tissue.
Radiolabeling of bovine neck ligament elastin is carried out with tritiated sodium borohydride as described by Stone, et al. (Anal. Biochem., 1977, 80:572-577). Elastin coated microtiter plates are prepared essentially as described above for the fibronectin plates. The assay is run similarly except that the supernatant is added to a scintillation cocktail for counting. The linearity of the responses to purified HE is also tested.

[1] = molecular target: T3, purified human elastase (HE) (Homo sapiens, UniProt P08246); test: 125I-Fibronectin assay with purified human elastase; type: biochemical; settings: enzyme concentration 4 nM, FIG. 3
T3 sequence (P08246 30-267): T2 sequence (P08246 30-267)
Procedure: This assay is designed to model the degradation of connective tissue. […] Briefly, purified human plasma fibronectin (fn) is radiolabeled with ^125 I using Enzymobeads and conventional procedures. The desalted is diluted with fn to yield ca. cpm/ug. This material is further diluted with pH 9.6 barbital buffer and 200 ul (30 ug fn, 50000 cpm) is pipetted into the wells of a flat bottomed 96 well microtiter plate. The plates are dried for about 24 hours at 37° C. and unbound fn is removed with 2 washes of phosphate buffered saline (PBS). The plates are stored at 4° C. and are stable for at least 2 weeks.
For an assay each coated well is filled with a total volume of 200 μl. All measurements are carried out at optimal pH and buffer conditions. After addition of proteolytic activity with or without inhibitor the plate is incubated at 37° C. for 3 hours. The well contents are centrifuged and a 100 μl aliquot is counted for 1251gamma radiation. Some assays employed elastase activity derived from freshly prepared neutrophils (PMN). ln this case an activating agent to stimulate the PMN is present in the well and the PMN is added last. A standard curve showing the linearity of the response to the amount of purified human elastase (HE) added is obtained concurrently with each assay.

[2] = molecular target: T4, PMN-derived human elastase activity (Homo sapiens, UniProt P08246); test: 125I-Fibronectin assay with stimulated PMN as source of elastase activity; type: cell-based; settings: HLE equivalent of 4 nM, FIG. 3
T4 construct: Some assays employed elastase activity derived from freshly prepared neutrophils (PMN); endogenous in cells; host or cells: freshly prepared, stimulated neutrophils (PMN)
T4 sequence (P08246 30-267): T2 sequence (P08246 30-267)
Procedure: The data points represent the mean of several (n=3 to 9) replicates compared to the control that contained no inhibitor.
This assay is designed to model the degradation of connective tissue. The assay is carried out essentially as described by Campbell, et al. (J. Clin. Invest., 1982, 70:845-52). Briefly, purified human plasma fibronectin (fn) is radiolabeled with ^125 I using Enzymobeads and conventional procedures. The desalted is diluted with fn to yield ca. cpm/ug. This material is further diluted with pH 9.6 barbital buffer and 200 ul (30 ug fn, 50000 cpm) is pipetted into the wells of a flat bottomed 96 well microtiter plate. The plates are dried for about 24 hours at 37° C. and unbound fn is removed with 2 washes of phosphate buffered saline (PBS). The plates are stored at 4° C. and are stable for at least 2 weeks.
For an assay each coated well is filled with a total volume of 200 μl. All measurements are carried out at optimal pH and buffer conditions. After addition of proteolytic activity with or without inhibitor the plate is incubated at 37° C. for 3 hours. The well contents are centrifuged and a 100 μl aliquot is counted for 1251gamma radiation. Some assays employed elastase activity derived from freshly prepared neutrophils (PMN). ln this case an activating agent to stimulate the PMN is present in the well and the PMN is added last. […]

Human Sputum Cathepsin G = molecular target: T5, Human Sputum Cathepsin G (Homo sapiens, UniProt P08311); test: Cathepsin G assay (spectrophotometric, p-nitroanilide substrate); type: biochemical; settings: inhibitor/protease ratio between about 10/1 and 50/1
T5 construct: Human Sputum Cathepsin G (Product No. SG-45, EPC, Inc., Pacific, Mo.); purchased EPC, Inc., Pacific, Mo; SG-45; host or cells: human sputum
T5 sequence (P08311 21-255): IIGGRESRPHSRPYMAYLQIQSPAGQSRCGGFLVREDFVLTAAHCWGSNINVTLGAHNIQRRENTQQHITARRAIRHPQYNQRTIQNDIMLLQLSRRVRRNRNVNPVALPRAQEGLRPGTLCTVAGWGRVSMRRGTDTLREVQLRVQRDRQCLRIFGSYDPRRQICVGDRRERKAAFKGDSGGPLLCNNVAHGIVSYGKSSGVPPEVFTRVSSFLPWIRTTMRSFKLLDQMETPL
Description: as §1, §2, §3, §4, §5, §6, §7, §8, §9, §10
(A) Buffer Solution - Tris-NaCl buffer consisting of 0.1M Tris-HCl, pH 8.0 containing 0.5M NaCl and 0.03% sodium azide.
(B) Substrate solution - Dissolve 50 mg of N-succinyl-L-alanyl-L-alanyl-L-prolyl-L-phenylalanine p-nitroanilide in 1 ml of 1-methyl-2-pyrrolidinone and dilute to 50 ml with Tris-NaCl buffer.
(C) Enzyme Solution - Human Sputum Cathepsin G (Product No. SG-45, EPC, Inc., Pacific, Mo.). Dissolve 1 mg of protein per 1 ml of Tris-NaCl buffer. Store on ice or at 4° C.
(D) Test Solutions - See the general protocol, number 8.
Procedure: Use the above solution in the general protocol described above. […]

Substance: RVCPVILMKCKKDSDCLAECVCLEHGYCG (RVCPVILMKCKKDSDCLAECVCLEHGYCG) [Peptide 8]
- Inhibitory Activity Trypsin (bovine trypsin): - (Represents less than 10% inhibition)
- inhibition of elastolysis (purified HE): equally effecive for these two connective tissue substrates
- inhibition of 125I fibronectin degradation [1]: nearly the same inhibitory profile against purified human elastase (HE) and PMN-derived HE activity
- inhibition of 125I fibronectin degradation [2]: nearly the same inhibitory profile against purified human elastase (HE) and PMN-derived HE activity
- Inhibitory Activity Cathepsin G (Human Sputum Cathepsin G): - (Represents less than 10% inhibition)
